Measured values as given in paper PMC2773364.

Legend:
[1] = substrate: CC(C)C[C@H](NC(=O)OCc1ccccc1)C(=O)N[C@@H](Cc1ccc(O)cc1)C(=O)O; assay: purified protein; conditions: 50 mM acetate buffer, pH 3.7, 30°C
[2] = substrate: O=C(O)CC[C@H](NC(=O)OCc1ccccc1)C(=O)N[C@@H](Cc1ccc(O)cc1)C(=O)O; assay: purified protein; conditions: 50 mM acetate buffer, pH 3.7, 30°C

Protein | Km [1] | kcat [1] | kcat/Km [1] | Km [2] | kcat [2] | kcat/Km [2]
recombinant OcpA (Aspergillus oryzae RIB40) (protein) YVNNSGICETTKGVNQYSGYLSVGENQNMFFWFFESRNNPQQAPLSAWFNGGPGCSSMIGLFQEHGPCHFVNGEDTPSLNEHSWNNFANMLYIDQPIGVGFSYGDNPVNSTWTAAPYVWKFLQAFYEHFPQYESRDFGIFTESYGGHYGPGFASYILDQNNAIEAGSQKGEKVNLVALGINNGMFDSTLQEKAYITFAYNNTYRQLIDESLKDKLLEAYESECLPAVQKCQQTQTNEDCQNAGSVCGESVENPIMQAGGDFDVYDVREPSNDPNPPETYSKYIARPDIMKAIGARSDYQECADAPGQKFGATGDEYRSTLPDLSEVIKAGVNVLVWAGTADYICNVDGSIAVANAVDFSGHDEFQGKALEAYKVNGKEVGQFKSVDNFHLLTVYDAGHEVPYYQPETALQAFTQILQKKPLSST | 410 µM | 18 s⁻¹ | 43900 M⁻¹ s⁻¹ | 260 µM | 22.7 s⁻¹ | 85900 M⁻¹ s⁻¹
recombinant CpI (Aspergillus oryzae RIB40) (protein) LPGSTPASVGRRQLPKNPTGVKTLTTANNVTIRYKEPGAEGVCETTPGVKSYSGYVDTSPESHTFFWFFEARHNPETAPITLWLNGGPGSDSLIGLFEELGPCHVNSTFDDYINPHSWNEVSNLLFLSQPLGVGFSYSDTVDGSINPVTGVVENSSFAGVQGRYPTIDATLIDTTNLAAEAAWEILQGFLSGLPSLDSRVQSKDFSLWTESYGGHYGPAFFNHFYEQNERIANGSVNGVQLNFNSLGIINGIIDEAIQAPYYPEFAVNNTYGIKAVNETVYNYMKFANQMPNGCQDLISTCKQTNRTALADYALCAEATNMCRDNVEGPYYAFAGRGVYDIRHPYDDPTPPSYYNKFLAKDSVMDAIGVNINYTQSNNDVYYAFQQTGDFVWPNFIEDLEEILALPVRVSLIYGDADYICNWFGGQAVSLAANYSQAAQFRSAGYTPLKVNGVEYGETREYGNFSFTRVYEAGHEVPYYQPIASLQLFNRTIFGWDIAEGQKKIWPSYKTNGTATATHTQSSVPLPTATSMSSVGMA | 340 µM | 30.3 s⁻¹ | 89800 M⁻¹ s⁻¹ | 270 µM | 20.1 s⁻¹ | 73200 M⁻¹ s⁻¹
